{
  "source": "IntAct's records for PubMed 31911079",
  "parents": {"B1": {"name": "Lysyl oxidase homolog 2 (Homo sapiens), Q9Y4K0 (parent)", "chain": "MERPLCSHLCSCLAMLALLSPLSLAQYDSWPHYPEYFQQPAPEYHQPQAPANVAKIQLRLAGQKRKHSEGRVEVYYDGQWGTVCDDDFSIHAAHVVCRELGYVEAKSWTASSSYGKGEGPIWLDNLHCTGNEATLAACTSNGWGVTDCKHTEDVGVVCSDKRIPGFKFDNSLINQIENLNIQVEDIRIRAILSTYRKRTPVMEGYVEVKEGKTWKQICDKHWTAKNSRVVCGMFGFPGERTYNTKVYKMFASRRKQRYWPFSMDCTGTEAHISSCKLGPQVSLDPMKNVTCENGLPAVVSCVPGQVFSPDGPSRFRKAYKPEQPLVRLRGGAYIGEGRVEVLKNGEWGTVCDDKWDLVSASVVCRELGFGSAKEAVTGSRLGQGIGPIHLNEIQCTGNEKSIIDCKFNAESQGCNHEEDAGVRCNTPAMGLQKKLRLNGGRNPYEGRVEVLVERNGSLVWGMVCGQNWGIVEAMVVCRQLGLGFASNAFQETWYWHGDVNSNKVVMSGVKCSGTELSLAHCRHDGEDVACPQGGVQYGAGVACSETAPDLVLNAEMVQQTTYLEDRPMFMLQCAMEENCLSASAAQTDPTTGYRRLLRFSSQIHNNGQSDFRPKNGRHAWIWHDCHRHYHSMEVFTHYDLLNLNGTKVAEGHKASFCLEDTECEGDIQKNYECANFGDQGITMGCWDMYRHDIDCQWVDITDVPPGDYLFQVVINPNFEVAESDYSNNIMKCRSRYDGHRIWMYNCHIGGSFSEETEKKFEHFSGLLNNQLSPQ"}},
  "data": [
    {"variants_of": "B1", "conditions": "with can2_human CAPN2, P17655", "values": [
      {"variant": "N288Q;N455Q;N644Q", "effect of a mutation on the interaction": "with no effect"},
      {"variant": "H626Q;H628Q;Y689F", "effect of a mutation on the interaction": "with no effect"}
    ]},
    {"variants_of": "B1", "conditions": "with vime_human VIM", "values": [
      {"variant": "H626Q;H628Q;Y689F", "effect of a mutation on the interaction": "with no effect"}
    ]}
  ]
}
